Key:
[1] = target: T1, Japanese eel (Anguilla japonica) UnaG, wild type, SEQ ID NO: 1 (Anguilla japonica, UniProt P0DM59); experiment: Dissociation constant by bilirubin titration of apo UnaG (fluorescence at 527 nm, curve fitting); assay type: binding; conditions: wild-type apo UnaG 5 nM, titrated with bilirubin to 10 nM
T1 construct: GST (N, cleaved yes); made in house; host or cells: Escherichia coli BL21 (DE3)
From the text: The capacity of binding to bilirubin can be evaluated through calculation of dissociation constant (Kd) by curve-fitting of correlation between the amount of bilirubin and the fluorescence intensity of UnaG protein. In one instance, “reduced capacity of binding to bilirubin compared to UnaG” means that the dissociation constant, Kd, is larger than that of UnaG.
The dissociation constant can be calculated by a known method, for example, by the following computation expression: Y=[Kd+Bt+Pt−{(Kd+Bt+Pt}^1/2]/(2×Pt) where Y represents the degree of binding of bilirubin (fluorescence intensity); Kd represents the dissociation constant; Bt represents the concentration of bilirubin; and Pt represents the concentration (5 nM) of apo UnaG protein.
(§1) An apo UnaG protein solution having an apo UnaG protein concentration of 5 nM was titrated with bilirubin to give a final concentration of bilirubin of 10 nM, and the fluorescence spectrum was measured with a fluorescence spectrophotometer.
Apo A12ES80N mutant protein was titrated with bilirubin, and the fluorescence intensity was measured with a spectrophotofluorometer F-2500 (Hitachi High-Technologies Corporation). The results were plotted. Data analysis and fitting with graph plotting software Origin (OriginLab Corporation) were performed to determine the dissociation constant (Kd). […]

[2] = target: T1, Japanese eel (Anguilla japonica) UnaG, wild type, SEQ ID NO: 1; experiment: Fluorescence of apo UnaG reconstructed with bilirubin or bilirubin analogs (ligand specificity); assay type: biochemical; conditions: apo UnaG 0.5 μM; ligand 0.125-2.0 μM; room temperature 30 min; excitation 497 nm, fluorescence 527 nm
Method: FIG. 5 is a graph showing specificity of UnaG protein in Example of the present invention to unconjugated bilirubin. Apo UnaG (0.5 μM) was mixed with a ligand: bilirubin (unconjugated) at various concentrations or a bilirubin analog, biliverdin, urobilin, or ditaurobilirubin, at various concentrations, and the fluorescence intensity at each concentration was measured. The vertical axis indicates fluorescence intensity, and the horizontal axis indicates concentration (μM) of each ligand.
Bilirubin or a bilirubin analog, biliverdin (Toronto Research Chemicals), urobilin (MP Biomedicals), or ditaurobilirubin (Frontier Scientific), was diluted with PBS such that the final concentration was 0.125 μM, 0.25 μM, 0.5 μM, 1.0 μM, or 2.0 μM and was mixed with 0.5 μM apo UnaG protein. The mixture was left to stand at room temperature for 30 min. Subsequently, 200 μL of the mixture was added to each well of a 96 well microplate (Greiner Bio-One) and was subjected to measurement of the fluorescence intensity at a wavelength of 527 nm with excitation light having a wavelength of 497 nm using EnSpire multi-mode plate reader (PerkinElmer Co., Ltd.).

[3] = target: T2, Japanese eel (Anguilla japonica) UnaG variant A12ES80N (A12E, S80N), SEQ ID NO: 29 (Anguilla japonica, UniProt P0DM59, A12E/S80N); experiment: Dissociation constant by bilirubin titration of apo A12ES80N mutant (fluorescence, curve fitting); assay type: binding
T2 construct: made in house; host or cells: Escherichia coli JM109 (DE3)
Method: as §1
A DNA fragment of A12ES80N mutant was ligated into BamHI and EcoRI restriction enzyme sites of pRSETB-FLAG vector, which was Escherichia coli expression vector pcRSETB including a FLAG tag sequence (SEQ ID NO: 26) at the KpnI/BamHI restriction enzyme sites, and was transformed into Escherichia coli strain JM109 (DE3) for subcloning. […]
The bacterial cells were suspended in 5 mL of PBS, and 50 μL of lysozyme (4 mg/mL) was added thereto. […] Subsequently, His-FLAG-UnaG mutant protein was eluted by adding each 500 μL of PBS containing 300 mM imidazole to the carrier, and the elution fraction was detected by a bradford method. […] The concentration of the purified His-FLAG-UnaG mutant protein was determined by the following computation expression based on the absorbance A280. […]
Apo A12ES80N mutant protein was titrated with bilirubin, and the fluorescence intensity was measured with a spectrophotofluorometer F-2500 (Hitachi High-Technologies Corporation). […]

[4] = Measurement of fluorescence spectrum, absorption spectrum, quantum yield and fluorescence lifetime; assay type: physicochemical
Method: In order to analyze the fluorescent properties of UnaG protein, the fluorescence spectrum, absorption spectrum, and quantum yield were measured. The excitation spectrum and the fluorescence spectrum were measured with a spectrophotofluorometer, RF-5300PC (Shimadzu Corporation), at an excitation wavelength of 475 nm and a fluorescence wavelength of 550 nm. The absorption spectrum was measured with a spectrophotometer, U-2900 (Hitachi High-Technologies Corporation). The quantum yield was measured with an absolute quantum yield measurement system, Quantaurus-QY (Hamamatsu Photonics K.K.) at excitation wavelengths of 470 nm and 480 nm. A known fluorescent protein, EGFP, was similarly measured, and the values were compared to those of UnaG protein.
In order to analyze the fluorescent properties of R82EK84E mutant, the fluorescence spectrum, absorption spectrum, and quantum yield were measured. The measurement was performed by the same method as that described in the above-described paragraph 3. The fluorescence lifetime was measured with a small-sized fluorescence lifetime measurement system, Quantaurus-Tau (Hamamatsu Photonics K.K.) and was compared to that of wild-type UnaG protein.
The fluorescence spectrum, absorption spectrum, and quantum yield (excitation wavelength: 470 nm) were measured for analyzing the fluorescent properties of holo A12ES80N mutant protein. The measurement was performed by the same method as that described in paragraph 3, above. The fluorescent properties were compared to those of wild-type UnaG protein.

[5] = Evaluation of aggregability of protein by dynamic light scattering particle diameter; assay type: physicochemical
Method: Protein solutions (each 20 μL) of wild-type UnaG protein (10 mg/mL) and R82EK84E mutated UnaG protein (8.5 mg/mL) were each supplied to Microtrac particle size analyzer MT3000II (Nikkiso Co., Ltd.), and the particle diameters were measured by a dynamic light scattering. The aggregability was evaluated by plotting frequency against particle diameter.

[6] = Table 3, wild-type vs R82EK84E mutant
[7] = Table 3, wild-type vs R82EK84E mutant, holo form reconstructed with bilirubin
[8] = Table 4, wild-type vs holo A12ES80N mutant

T1 sequence (P0DM59 whole entry): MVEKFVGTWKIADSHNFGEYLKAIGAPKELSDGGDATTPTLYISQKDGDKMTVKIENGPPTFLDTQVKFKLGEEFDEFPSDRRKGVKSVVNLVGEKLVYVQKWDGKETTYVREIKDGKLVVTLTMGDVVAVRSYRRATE

In the case of `C=CC1=C(C)/C(=C/c2[nH]c(Cc3[nH]c(/C=C4\NC(=O)C(C)=C4C=C)c(C)c3CCC(=O)O)c(CCC(=O)O)c2C)NC1=O` [bilirubin], the Kd [1] is reported as 0.098 nM, the “fluorescence emission of UnaG on addition of ligand” value [2] is reported as “the fluorescence of UnaG is specific to bilirubin” and the Kd [3] is reported as 1.9 nM.

B1: R82EK84E mutant: UnaG with 82nd amino acid R and 84th amino acid K substituted by E; SEQ ID NO: 5 (protein, listed as Anguilla japonica)
chain: MVEKFVGTWKIADSHNFGEYLKAIGAPKELSDGGDATTPTLYISQKDGDKMTVKIENGPPTFLDTQVKFKLGEEFDEFPSDEREGVKSVVNLVGEKLVYVQKWDGKETTYVREIKDGKLVVTLTMGDVVAVRSYRRATE
In the case of B1, the Molar extinction coefficient [4, 6] is reported as 50,870 M^−1 cm^−1, the Quantum yield [4, 6] is reported as 61% and the Maximum excitation wavelength [4, 7] is reported as 498 nm. For the same molecule, the Maximum fluorescence wavelength [4, 7] was 527 nm, the “Fluorescence lifetime (τ1/ns)” value ([4]; Table 3, wild-type vs R82EK84E mutant, Quantaurus-Tau) was 2.2 ns and the “dispersibility / aggregation compared to the wild-type” value [5] was “improved dispersibility”. For the same molecule, the “particle diameter distribution (peaks)” value ([5]; wild-type 10 mg/mL, R82EK84E mutant 8.5 mg/mL) was “single peak”.

B2: A12ES80N mutant: UnaG variant with substitution of A at 12th position to E and S at 80th position to N; SEQ ID NO: 29 (protein, listed as Anguilla japonica)
chain: MVEKFVGTWKIEDSHNFGEYLKAIGAPKELSDGGDATTPTLYISQKDGDKMTVKIENGPPTFLDTQVKFKLGEEFDEFPNDRRKGVKSVVNLVGEKLVYVQKWDGKETTYVREIKDGKLVVTLTMGDVVAVRSYRRATE
In the case of B2, the Maximum excitation wavelength [4, 8] is reported as 499 nm, the Maximum fluorescence wavelength [4, 8] is reported as 527 nm and the Molar extinction coefficient [4, 8] is reported as 56,210 M^−1 cm^−1. For the same molecule, the Quantum yield ([4]; Table 4, excitation wavelength 470 nm) was 46.8%.
